The conditions of the data set: Capra hircus, 25 °C, GdnHCl, CD, Tris 20 mM, Na+ 80 mM, whole UniProt chain shown.

Several values for one entry are separate records, joined by “and”; a condition that tells them apart may be missing. Equal values may be shown once.

B1: Alpha-lactalbumin wild type, P00712 (protein)
chain: MMSFVSLLLVGILFHATQAEQLTKCEVFQKLKDLKDYGGVSLPEWVCTAFHTSGYDTQAIVQNNDSTEYGLFQINNKIWCKDDQNPHSRNICNISCDKFLDDDLTDDIVCAKKILDKVGINYWLAHKALCSEKLDQWLCEKL
For the protein B1, the denaturant m value (pH 4.5, transition: 3) was 1.34 kcal/mol/M and 1.19 kcal/mol/M; the denaturant m value (pH 4.5) was determined as 2.53 kcal/mol/M; the denaturant m value (pH 5.5) amounted to 2.75 kcal/mol/M; the denaturant m value (pH 7.5) was found to be 3 kcal/mol/M. Moreover, the unfolding free energy by setting is: (pH 4.5, transition: 3) 3.39 kcal/mol and 3.38 kcal/mol; (pH 4.5) 6.79 kcal/mol; (pH 5.5) 8.8 kcal/mol; (pH 7.5) 10.2 kcal/mol.

The values above are taken from FireProtDB (doi:10.1002/prot.20212).
